Drawing on patent US20180030455A1, this text covers reduction in retinal permeability (Evans Blue permeation) for one substance.

This experiment concerns the target vitreal Sema3A of STZ-treated diabetic mice (endogenous mouse Semaphorin3A) (mouse) (UniProt O08665). The experiment can be described thus: cell-based or functional assay.
Chain of UniProt O08665 (O08665 21-772 limits assumed): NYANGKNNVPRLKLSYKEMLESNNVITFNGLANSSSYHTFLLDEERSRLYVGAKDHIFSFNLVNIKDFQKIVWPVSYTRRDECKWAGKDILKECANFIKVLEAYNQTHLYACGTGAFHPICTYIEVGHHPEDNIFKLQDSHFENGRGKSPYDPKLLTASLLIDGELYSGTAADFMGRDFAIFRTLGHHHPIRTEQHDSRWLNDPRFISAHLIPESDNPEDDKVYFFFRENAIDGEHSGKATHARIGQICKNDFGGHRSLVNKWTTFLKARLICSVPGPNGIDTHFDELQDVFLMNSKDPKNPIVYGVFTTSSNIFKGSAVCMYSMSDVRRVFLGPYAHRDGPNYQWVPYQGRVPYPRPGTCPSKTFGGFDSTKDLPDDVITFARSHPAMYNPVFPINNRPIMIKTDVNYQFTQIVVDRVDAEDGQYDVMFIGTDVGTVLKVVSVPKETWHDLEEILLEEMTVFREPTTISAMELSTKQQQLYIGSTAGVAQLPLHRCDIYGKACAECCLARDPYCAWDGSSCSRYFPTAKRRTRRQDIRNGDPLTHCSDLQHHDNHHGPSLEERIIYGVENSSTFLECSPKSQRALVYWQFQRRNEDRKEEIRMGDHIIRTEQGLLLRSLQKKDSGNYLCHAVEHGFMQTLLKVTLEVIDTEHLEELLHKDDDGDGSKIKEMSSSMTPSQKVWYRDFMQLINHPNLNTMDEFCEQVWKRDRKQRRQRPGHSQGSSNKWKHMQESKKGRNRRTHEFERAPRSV

On to “recombinant mouse soluble Neuropilin-1 (rmNRP1) (from UniProt P97333 22-856) (receptor)”, for which the reduction in retinal permeability (Evans Blue permeation) at week 8 of diabetes, after intravitreal injection of rNrp-1 in STZ mice at weeks 6 and 7 came to 48.1%.
